Reference: patent US20260234283A1 (published 2026)
Substitutions are numbered along the chain they refer to. Each block holds one binder with its values, some of them ahead of it.

Legend:
Experiment in all cases: Biacore
[1] = biological target: recombinant human SIRPα-His V8 (human, UniProt P78324 31-370)
[2] = biological target: recombinant human SIRPα-His V2 (human, UniProt P78324 31-370)
[3] = biological target: T1, recombinant cyno SIRPα-His (cynomolgus monkey, UniProt A0A2K5VYQ9 31-372)
T1 chain: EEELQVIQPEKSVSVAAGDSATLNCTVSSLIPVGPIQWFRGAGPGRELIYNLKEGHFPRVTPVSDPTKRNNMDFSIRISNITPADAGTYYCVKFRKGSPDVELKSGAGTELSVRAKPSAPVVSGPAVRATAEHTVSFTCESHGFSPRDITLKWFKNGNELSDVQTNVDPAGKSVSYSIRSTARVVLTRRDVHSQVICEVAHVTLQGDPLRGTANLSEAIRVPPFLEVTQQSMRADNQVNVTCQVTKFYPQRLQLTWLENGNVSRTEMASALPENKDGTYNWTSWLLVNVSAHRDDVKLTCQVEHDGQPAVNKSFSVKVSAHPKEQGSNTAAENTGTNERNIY

Sequence of recombinant human SIRPα-His V2 (P78324 other isoform, or with tags, fused parts or gaps): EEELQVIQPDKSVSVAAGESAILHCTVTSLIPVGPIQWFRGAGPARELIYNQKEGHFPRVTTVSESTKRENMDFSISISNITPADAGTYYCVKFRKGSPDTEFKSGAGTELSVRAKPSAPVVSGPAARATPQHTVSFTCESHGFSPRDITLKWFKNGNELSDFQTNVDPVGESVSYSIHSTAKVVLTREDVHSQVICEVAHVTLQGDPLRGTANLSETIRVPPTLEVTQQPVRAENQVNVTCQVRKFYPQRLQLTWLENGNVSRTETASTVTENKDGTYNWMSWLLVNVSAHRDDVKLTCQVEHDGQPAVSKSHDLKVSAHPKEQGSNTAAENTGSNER
Sequence of recombinant human SIRPα-His V8 (P78324 other isoform, or with tags, fused parts or gaps): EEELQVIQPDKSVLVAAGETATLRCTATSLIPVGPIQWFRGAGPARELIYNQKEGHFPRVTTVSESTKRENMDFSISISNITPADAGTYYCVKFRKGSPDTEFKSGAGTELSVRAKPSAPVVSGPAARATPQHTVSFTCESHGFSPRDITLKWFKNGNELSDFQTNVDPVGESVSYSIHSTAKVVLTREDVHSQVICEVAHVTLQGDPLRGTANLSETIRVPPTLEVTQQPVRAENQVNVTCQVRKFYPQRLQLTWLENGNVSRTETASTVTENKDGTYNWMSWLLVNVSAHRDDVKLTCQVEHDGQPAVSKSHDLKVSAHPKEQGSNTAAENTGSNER

- Kd [1]: 0.337 nM
- Kd [2]: 0.981 nM
- Kd [3]: 1.19 nM
B1: 56.16A1.H11 (antibody, V domains shown)
VH: EVQLVESGGGLVQPGRSMKLSCAASGFIFTNYDMAWVRQAPTKGLEWVASISYGGSRIYYRDSVKGRFTISRDDAKSTLYLQMDSLRSEDTATYYCTTDYGYNPSYYWYFDFWGPGTMVTVSS
VL: DIQMTQTPSSMPASLGERVTISCRASQGISNYLNWYQQKPDGTIKPLIYYTSNLQSGVPSRFSGSGSGTDYSLTISSLEPEDFAMYYCQQYDSSPYTFGAGTKLELKR

- Kd [1]: 35 nM
- Kd [2]: 40.2 nM
B2: 49.91C2.A9 (antibody, V domains shown)
VH: EVKLLESGGGLVQPGGSLKLSCAASGFDFSRYWMSWVRQAPGKGLEWIGEINPDSSTINYTPSLKDKFIISRDNAKNTLYLQMSKVRSEDTALYYCATSFYGSSYWYFDVWGAGTTVTVSS
VL: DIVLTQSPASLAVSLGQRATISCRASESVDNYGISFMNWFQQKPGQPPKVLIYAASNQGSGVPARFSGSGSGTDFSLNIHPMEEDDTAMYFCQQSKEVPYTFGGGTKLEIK

- Kd [1]: 2.66 nM
- Kd [2]: 3.17 nM
- Kd [3]: 22.6 nM
B3: 49.64D3.A6 (antibody, V domains shown)
VH: EVMLVESGGGLVKPGGSLKLTCAASGFIFSNYAMSWVRQTPEKRLEWVATFSSGGSYTYYQDSVKGRFTVSRDNAKNTLYLQMSSLRSEDTAMYYCARSGWDGWFAYWGQGTLVTVSA
VL: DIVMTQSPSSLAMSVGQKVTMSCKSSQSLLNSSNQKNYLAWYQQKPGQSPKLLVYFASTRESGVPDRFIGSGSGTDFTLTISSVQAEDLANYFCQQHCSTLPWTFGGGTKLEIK

- Kd [1]: 2.68 nM
- Kd [2]: 3.41 nM
- Kd [3]: 22.3 nM
B4: 49.56C11.C1 (antibody, V domains shown)
VH: B3 VH with I28T, Y32H, S52G, Q61L, A97S
VL: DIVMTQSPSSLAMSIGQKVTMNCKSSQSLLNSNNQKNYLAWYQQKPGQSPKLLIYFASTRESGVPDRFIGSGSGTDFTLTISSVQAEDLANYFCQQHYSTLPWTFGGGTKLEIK

- Kd [1]: < 0.1 nM
- Kd [2]: < 0.1 nM
- Kd [3]: 3.03 nM
B5: 54.69B10.E7 (antibody, V domains shown)
VH: EVQLVESGGGLVQPGGSLRLSCAASGFTFSSYDMHWVRQTTGKGLEWVSVIGIAGDTYYAGSVKGRFTISRENAKSSLYLQMNSLRAGDTAVYYCARGGNWDDAFDIWGQGTMVTVSS
VL: DIQMTQSPSSLSASVGDRVTITCRASQDINNYLAWFQQKPGKAPKSLIYTTSSLQSGVPSKFSGSGSGTDFTLTISSLQPEDFATYYCQQYVSYPYTFGQGTKLEIK

- Kd [1]: < 0.1 nM
- Kd [2]: < 0.1 nM
- Kd [3]: 2.65 nM
B6: 54.58C2.B9.A2 (antibody, V domains shown)
VH: B5 VH with T40A, A54S, A60P, S76N
VL: B5 VL

- Kd [1]: < 0.1 nM
- Kd [2]: < 0.1 nM
- Kd [3]: 3.17 nM
B7: 54.76D9.B6 (antibody, V domains shown)
VH: B5 VH with T40A, A54S, A60P, S76N, Y79H, F105L
VL: B5 VL

- Kd [1]: 1.05 nM
- Kd [2]: 1.13 nM
- Kd [3]: 72.3 nM
B8: 54.8A5.A5 (antibody, V domains shown)
VH: B5 VH with G10D, V12I, T28S, V50A, I53T, A60P, S76N, M113V
VL: B5 VL with K42R, Y49F, T51A, S53R, T72S, V92T, S93F

- Kd [1]: 62.3 nM
- Kd [2]: 67.6 nM
- Kd [3]: 116 nM
B9: 53.21A9.B11 (antibody, V domains shown)
VH: QVQLQESGPGLVKPSETLSLTCTVSGGSVSSGRYYWSWIRQPPGKGLEWIGYIYYSGSTNYNPSLKSRVTISVDTSKNQFSLKLTSVTAADTAVYYCARAYDWNYFFDYWGQGTLVTVSS
VL: DIVMTQSPLSLPVTPGEPASISCRSSQSLLYSNGYNYLEWYLQKPGQSPQLLIYLGSNRASGVPDRFSGSGSGTDFTLQISRVEAEDVGVYYCMQGLQTPITFGQGTRLEIK
